The target in test [1] is human ZNRF3(ECD) on Freestyle 293F cells (human). Nature of the test: FACS on a mix of DiD-labelled ZNRF3 over-expressing and unlabelled parental 293F Freestyle cells, secondary reagents (anti-M13 and Strep-PE) only; Q3 0,120% [continued].
In test [2] the target is T1, recombinant human LGR5-Fc (human, UniProt O75473 22-561).
T1 construct: extracellular domain; also called rhLGR5-Fc (RND systems Cat. Nr. 8078-GP); not shown: Fc part of the bought fusion protein
T1 sequence (looked up): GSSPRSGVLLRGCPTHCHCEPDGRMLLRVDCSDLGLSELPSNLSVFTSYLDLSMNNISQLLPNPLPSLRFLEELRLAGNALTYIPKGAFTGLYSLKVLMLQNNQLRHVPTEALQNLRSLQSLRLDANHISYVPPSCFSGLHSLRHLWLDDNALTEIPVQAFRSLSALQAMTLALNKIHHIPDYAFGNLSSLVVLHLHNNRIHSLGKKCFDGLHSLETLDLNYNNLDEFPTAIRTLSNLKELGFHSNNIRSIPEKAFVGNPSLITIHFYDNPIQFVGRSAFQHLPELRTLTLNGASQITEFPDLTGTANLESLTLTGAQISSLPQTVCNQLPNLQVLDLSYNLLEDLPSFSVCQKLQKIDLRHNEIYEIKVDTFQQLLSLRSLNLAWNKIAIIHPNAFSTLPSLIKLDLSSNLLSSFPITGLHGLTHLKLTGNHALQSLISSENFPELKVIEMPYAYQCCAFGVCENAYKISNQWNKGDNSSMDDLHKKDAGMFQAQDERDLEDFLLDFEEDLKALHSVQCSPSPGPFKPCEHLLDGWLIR
The experiment in a line: R-Spondin3 blocking ELISA: 0,031 µg/ml rhLGR5-Fc on 2 µg/ml coated rhR-Spondin3, competitor 15 µg/ml soluble R-Spondin3, detection anti-Fc, OD450 normalised to maximum binding. On the technique in general: An ELISA detects its analyte on a solid surface through an enzyme-linked reagent.

Test [3] concerns the target T2, full length human LGR5-FLAG-HA on Freestyle 293F or CHO-K1 cells (human, UniProt O75473 22-907).
T2 construct: also called hLGR5; hLGR5(FL)
T2 sequence: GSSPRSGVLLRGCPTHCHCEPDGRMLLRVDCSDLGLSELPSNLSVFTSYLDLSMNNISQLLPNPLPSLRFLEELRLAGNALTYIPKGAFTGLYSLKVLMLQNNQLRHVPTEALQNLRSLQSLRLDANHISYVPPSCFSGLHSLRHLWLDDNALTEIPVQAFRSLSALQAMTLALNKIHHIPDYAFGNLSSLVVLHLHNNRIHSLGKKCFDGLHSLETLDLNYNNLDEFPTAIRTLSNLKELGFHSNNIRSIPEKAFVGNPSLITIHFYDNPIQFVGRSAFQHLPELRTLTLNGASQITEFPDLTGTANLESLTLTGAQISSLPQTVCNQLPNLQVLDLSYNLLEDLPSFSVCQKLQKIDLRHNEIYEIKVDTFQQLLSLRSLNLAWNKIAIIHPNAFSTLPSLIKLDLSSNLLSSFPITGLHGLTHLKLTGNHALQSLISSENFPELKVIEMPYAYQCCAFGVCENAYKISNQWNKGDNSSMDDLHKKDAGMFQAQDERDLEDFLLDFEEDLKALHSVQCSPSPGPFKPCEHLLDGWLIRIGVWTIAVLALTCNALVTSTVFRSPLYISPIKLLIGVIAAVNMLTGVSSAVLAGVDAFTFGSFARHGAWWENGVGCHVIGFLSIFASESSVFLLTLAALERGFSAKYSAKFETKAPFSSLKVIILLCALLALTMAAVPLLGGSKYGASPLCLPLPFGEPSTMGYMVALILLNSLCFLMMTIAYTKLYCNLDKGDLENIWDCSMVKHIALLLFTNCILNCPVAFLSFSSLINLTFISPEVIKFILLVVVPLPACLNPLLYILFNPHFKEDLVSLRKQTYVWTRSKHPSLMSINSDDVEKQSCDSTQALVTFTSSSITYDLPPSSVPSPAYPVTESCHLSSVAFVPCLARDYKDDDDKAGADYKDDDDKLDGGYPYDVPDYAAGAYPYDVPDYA
The experiment in a line: competition FACS on CHO-K1 cells over-expressing human LGR5; competitor PG7711p02 (OMP88R20 copy) fixed at 50 ng/ml, detected with anti-human IgG PE; MFI normalised to no R-spondin1.
Experimental: The binding of the copied version of OMP88R20 to this cell line was then tested in a dilution series of antibody and the EC50 for binding was determined.
The bispecifics were first tested for binding to the CHO cell clone expressing LGR5 in a concentration range to determine the EC50 for binding in FACS.

human ZNRF3(ECD) on Freestyle 293F cells (human), sequence (chain, as listed by the source): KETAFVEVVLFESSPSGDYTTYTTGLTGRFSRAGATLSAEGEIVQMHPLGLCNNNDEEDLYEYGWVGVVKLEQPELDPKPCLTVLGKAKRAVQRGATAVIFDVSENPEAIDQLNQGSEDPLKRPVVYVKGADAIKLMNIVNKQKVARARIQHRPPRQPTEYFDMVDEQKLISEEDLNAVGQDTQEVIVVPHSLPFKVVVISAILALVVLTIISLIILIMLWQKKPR

For -Control, the % of events in Q2 (DiD-positive and PE-positive) in test [1] is 0.18%.

B1: recombinant human R-Spondin3 (ligand, UniProt Q9BXY4 22-272, looked up)
chain: QNASRGRRQRRMHPNVSQGCQGGCATCSDYNGCLSCKPRLFFALERIGMKQIGVCLSSCPSGYYGTRYPDINKCTKCKADCDTCFNKNFCTKCKSGFYLHLGKCLDNCPEGLEANNHTMECVSIVHCEVSEWNPWSPCTKKGKTCGFKRGTETRVREIIQHPSAKGNLCPPTNETRKCTVQRKKCQKGERGKKGRERKRKKPNKGESKEAIPDSKSLESSKEIPEQRENKQQQKKRKVQDKQKSVSVSTVH
notes: also called rhR-Spondin3; R-Spondin3 (RND systems)
As for B1, in test [2], the binding result is reported as “binds”.

B2: R-spondin1 (ligand, UniProt Q2MKA7 21-263, looked up)
chain: SRGIKGKRQRRISAEGSQACAKGCELCSEVNGCLKCSPKLFILLERNDIRQVGVCLPSCPPGYFDARNPDMNKCIKCKIEHCEACFSHNFCTKCKEGLYLHKGRCYPACPEGSSAANGTMECSSPAQCEMSEWSPWGPCSKKQQLCGFRRGSEERTRRVLHAPVGDHAACSDTKETRRCTVRRVPCPEGQKRRKGGQGRRENANRNLARKESKEAGAGSRRRKGQQQQQQQGTVGPLTSAGPA
notes: also called RSPO1; R-spondin1 (R&D Systems, cat. nr. 4645-RF/CF)
As for B2, in test [3], the “IC50 (read off the curve)” value is around 10 nM.

The values above are taken from patent US20240343824A1 (MERUS N V, published 2024).
